Data from patent publication US20250215403A1, “Compositions and Methods for Cardiac Tissue Regeneration” (Temple University - Of The Commonwealth System Of Higher …, priority 2022, published 2025).

Experiments:
cardiomyocytes (CM) [1] = experiment: CM division lineage tracing in α-MHC-MADM mice post-MI; format: in vivo, mouse
Procedure: All animal procedures were performed under protocols approved by the Temple University Animal Care and Use Committee. Male and female C57BL6 mice were used. Different modRNAs (100 μg/heart) were injected directly into the myocardium in open chest surgery. Three to ten animals used for each experiment. For mice survival, C57BL6 mice (10-12-weeks-old) treated with Luc or PSAT1 modRNAs (n=10) post induction of MI and were followed for the indicated time. Deaths were monitored and documented over time. Tamoxifen-inducible CM-restricted MADM mice (α-MHC-MADM mice) mice were generated by crossing MADM mice (Jackson laboratory) to […].^Tg(Myh6-cre/Esr1*) 1Jmk/J (Cat no. 005657) mice to get α-MHC-MADM mice (Yuko, A. E., et al., 2021, Redox Biology, 47:102162). Tamoxifen (Sigma-Aldrich) was dissolved in sesame oil at 10 mg/ml as stock solution. To induce Cre activation, tamoxifen was administered to mice by intraperitoneal (IP) injection five times (48 h interval between administrations) at 40 mg/kg body weight for adult mice (Yuko, A. E., et al., 2021, Redox Biology, 47:102162). The tissues were harvested at mentioned time for analysis.
To analyze the cardiomyocyte division in vivo post-MI, cardiomyocyte specific mosaic analysis with double markers (MADM) mice, generated as described previously, were used (Yuko, A. E., et al., 2021, Redox Biology, 47:102162). The CM-specific transgenic mice were generated by crossing MADM mice (Jackson laboratory) to B6.FVB (129)-A1cf.^Tg(Myh6-cre/Esr1*) 1 Jmk/J (Cat no. 005657) mice to get α-MHC-MADM mice. In the MADM system, because of interchromosomal Cre-loxP recombination after S phase of the cell cycle, the daughter cells will get labeled (single colored) with either GFP (Green) or RFP (Red). The MADM single-labeling can only be attained by end of the cell cycle through cytokinesis. The inducible MADM system warrants temporal control of recombination and offers direct evidence for cell division. […]

cardiomyocytes (CM) [2] = experiment: DNA damage response immunostaining (8-OHG, pATM) in CMs post-MI; format: in vivo, mouse; details: two days post-MI; compared to Luc
Procedure: Mice hearts were harvested, weighed, and fixed in 4% PFA/PBS overnight on shaker and then washed with PBS for 1 hour and incubated in 30% sucrose/PBS at 4° C. for 12-18 hours. Hearts were then fixed in OCT and frozen at −80° C. (Magadum A., et al., Circulation. 2020, 141 (15): 1249-1265). Transverse heart sections (6-8 μm) were made using a cryostat. Frozen sections were rehydrated in PBS for 5-10 min followed by permeabilization with PBS with 0.1% Triton™ X100 (PBST) for 7-8 min. Heart sections were then treated with 3% H2O2 for 5 min and washed (3×5 min) with PBST. The samples were then blocked with PBS+10% Donkey normal serum+0.1% Triton™ X100 (PBSST) for 1 hour at room temperature. Primary antibodies (see complete list of primary antibodies used for this Example in Table 2 below) diluted in PBST were added and incubated overnight at 4° C. […] For immunostaining with wheat germ agglutinin (WGA) for CM size quantification, images were captured at 40× magnification, and ImageJ was used to determine the area of each cell. Quantitative analyses involved counting of multiple fields from 5-8 mouse hearts per group, and 3-4 sections/heart (˜50 cells per field assessed, for a total ˜250 cells per sample). […] BrdU positive CMs were counted in multiple fields from three independent samples per group and 3 sections/heart. The total number of CMs counted was ˜1-1.5×10^3 CMs per section. […]

B1: PSAT1 modRNA: modified mRNA with N1-methylpseudouridine, transcribed in vitro, encoding phosphoserine aminotransferase 1 (ORF SEQ ID NO: 1, RNA SEQ ID NO: 2) (nucleic acid)
chain: AUGGAAGCCACCAAGCAAGUGGUUAACUUUGGGCCCGGGCCUGCCAAGCUGCCACACUCGGUAUUGUUGGAGAUCCAGAAGCAGCUACUAGACUACAGAGGACUCGGCAUCAGUGUGCUCGAAAUGAGUCACAGGUCAUCAGAUUUUGCCAAGAUUAUUGGCAAUACAGAGAAUCUUGUGAGGGAAUUGCUAGCUGUUCCCAACAACUACAAGGUGAUCUUUGUACAAGGAGGUGGGUCUGGCCAGUUCAGUGCUGUCCCCUUAAAUCUGAUUGGCCUGAAAGCUGGAAGGAGUGCUGACUACGUGGUGACCGGAGCUUGGUCAGCUAAGGCUGCGGAAGAAGCCAAGAAGUUUGGAACGGUGAACAUUGUCCACCCUAAACUUGGAAGUUACACAAAAAUUCCAGACCCAAGCACCUGGAACCUCAACCCGGACGCCUCCUAUGUAUACUUCUGUGCAAACGAGACUGUGCACGGGGUGGAGUUUGACUUCGUACCUGACGUCAAGGGAGCGGUGCUGGUCUGUGACAUGUCCUCAAACUUCUUAUCCAGGCCGGUGGAUGUUUCCAAGUUUGGUGUGAUUUUCGCUGGUGCUCAGAAGAAUGUUGGCUCUGCCGGGGUGACGGUGGUGAUUGUCCGGGAUGACCUGCUGGGGUUCUCGCUCAGAGAGUGCCCAUCAGUCCUUGACUACAAAGUGCAGGCUGGGAACAACUCUUUGUAUAACACACCUCCGUGCUUCAGCAUCUACGUCAUGGGCAUGGUCCUGGAAUGGAUCAAGAACAACGGCGGGGCCGCAGCCAUGGAGAAGCUCAGCUCCAUCAAAUCCCAAAUGAUUUAUGAGAUCAUUGAUAAUUCUCAAGGAUUUUAUGUAUGCCCAGUGGAGCGCCAGAAUAGAAGCAGGAUGAACAUCCCAUUUCGCAUUGGCAACGCCAAAGGAGACGAAGCUUUGGAAAAGCGGUUUCUUGACAAGGCGGUAGAACUCAACAUGAUCUCCUUGAAGGGGCACAGGUCAGUGGGAGGCAUUCGUGCCUCUCUGUAUAACGCUGUCACAACCGAAGACGUUGAGAAGCUGGCGGCCUUCAUGAAGAAUUUCUUGGAGAUGCAUCAGCUGUGA
modifications: N1-methylpseudouridine
Cardiomyocytes (CM) [1]; 1-month post-MI
  location of the increase in single color CMs in the heart: mainly in the infarct border zone
Cardiomyocytes (CM) [1]; 1-month post-MI, compared to Luc modRNA
  % single color (green or red positive) CMs compared to total labeled CMs: increased
Cardiomyocytes (CM) [1]; 28 days post-MI
  nucleation of the majority of single color CMs: mononucleated
Cardiomyocytes (CM) [2]
  staining for nuclear 8-OHG (nuclear foci per CMs): significantly lower
  staining for pATM (nuclear foci per CMs): significantly lower
